Reference: IntAct's records for PubMed 29039417

B1: Protein PTHB1 (Homo sapiens), Q3SYG4 (parent)
chain: MSLFKARDWWSTILGDKEEFDQGCLCLANVDNSGNGQDKIIVGSFMGYLRIFSPHPAKTGDGAQAEDLLLEVDLRDPVLQVEVGKFVSGTEMLHLAVLHSRKLCVYSVSGTLGNVEHGNQCQMKLMYEHNLQRTACNMTYGSFGGVKGRDLICIQSMDGMLMVFEQESYAFGRFLPGFLLPGPLAYSSRTDSFLTVSSCQQVESYKYQVLAFATDADKRQETEQQKLGSGKRLVVDWTLNIGEQALDICIVSFNQSASSVFVLGERNFFCLKDNGQIRFMKKLDWSPSCFLPYCSVSEGTINTLIGNHNNMLHIYQDVTLKWATQLPHIPVAVRVGCLHDLKGVIVTLSDDGHLQCSYLGTDPSLFQAPNVQSRELNYDELDVEMKELQKIIKDVNKSQGVWPMTEREDDLNVSVVVSPNFDSVSQATDVEVGTDLVPSVTVKVTLQNRVILQKAKLSVYVQPPLELTCDQFTFEFMTPDLTRTVSFSVYLKRSYTPSELEGNAVVSYSRPTDRNPDGIPRVIQCKFRLPLKLICLPGQPSKTASHKITIDTNKSPVSLLSLFPGFASQSDDDQVNVMGFHFLGGARITVLASKTSQRYRIQSEQFEDLWLITNELILRLQEYFEKQGVKDFACSFSGSIPLQEYFELIDHHFELRINGEKLEELLSERAVQFRAIQRRLLARFKDKTPAPLQHLDTLLDGTYKQVIALADAVEENQGNLFQSFTRLKSATHLVILLIALWQKLSADQVAILEAAFLPLQEDTQELGWEETVDAAISHLLKTCLSKSSKEQALNLNSQLNIPKDTSQLKKHITLLCDRLSKGGRLCLSTDAAAPQTMVMPGGCTTIPESDLEERSVEQDSTELFTNHRHLTAETPRPEVSPLQGVSE
partner: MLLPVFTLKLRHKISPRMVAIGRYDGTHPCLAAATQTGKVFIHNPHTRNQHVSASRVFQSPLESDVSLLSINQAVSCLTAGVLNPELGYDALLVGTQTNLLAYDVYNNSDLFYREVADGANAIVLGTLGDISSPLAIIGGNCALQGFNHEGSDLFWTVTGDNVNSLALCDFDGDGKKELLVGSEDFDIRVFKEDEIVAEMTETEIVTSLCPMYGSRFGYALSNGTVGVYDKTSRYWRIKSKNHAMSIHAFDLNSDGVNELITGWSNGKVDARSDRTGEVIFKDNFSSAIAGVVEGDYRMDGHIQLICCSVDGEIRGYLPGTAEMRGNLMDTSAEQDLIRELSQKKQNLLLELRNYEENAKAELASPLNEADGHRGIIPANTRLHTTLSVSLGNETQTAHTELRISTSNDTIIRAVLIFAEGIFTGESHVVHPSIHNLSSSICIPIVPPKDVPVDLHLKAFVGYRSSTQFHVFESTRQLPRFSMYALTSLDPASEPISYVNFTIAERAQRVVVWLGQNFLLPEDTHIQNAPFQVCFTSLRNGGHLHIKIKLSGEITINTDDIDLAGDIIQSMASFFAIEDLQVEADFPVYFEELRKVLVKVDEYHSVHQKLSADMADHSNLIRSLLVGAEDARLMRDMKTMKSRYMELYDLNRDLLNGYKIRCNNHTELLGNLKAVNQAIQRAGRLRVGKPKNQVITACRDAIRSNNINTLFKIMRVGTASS

Variants of: B1
Settings: with bbs2_human BBS2, Q9BXC9

| Variant | effect of a mutation on the interaction |
| --- | --- |
| F684E | with no effect |
| F684A | with no effect |
| F684K | with no effect |
| F673E | with no effect |
| F673K | disrupting interaction strength |
| F673A | with no effect |
| A710E | with no effect |
| A710K | with no effect |
| R679K | with no effect |
| R679E | with no effect |
| R679G | disrupting interaction strength |
| R679A | with no effect |
| A708E | with no effect |
| A708K | with no effect |
| R683A | with no effect |
| R683E | with no effect |
| R683K | with no effect |
| K687E | with no effect |
| K687A | with no effect |
| Q693K | with no effect |
| Q693A | with no effect |
| Q693E | with no effect |
| L709K | with no effect |
| L709E | with no effect |
| L709A | with no effect |
| E668A | with no effect |

| Variant | effect of a mutation on the interaction |
| --- | --- |
| E668K | with no effect |
| Y703E | with no effect |
| Y703K | with no effect |
| Y703A | with no effect |
| E654K | with no effect |
| E654A | with no effect |
| H694K | with no effect |
| H694S | disrupting interaction strength |
| H694Y | disrupting interaction strength |
| H694A | with no effect |
| H694E | with no effect |
| T688E | disrupting interaction strength |
| T688K | with no effect |
| T688A | disrupting interaction strength |
| R678A | with no effect |
| R678E | with no effect |
| R678K | with no effect |
| L680A | with no effect |
| L680E | with no effect |
| L680K | with no effect |
| D686E | with no effect |
| D686A | with no effect |
| D686K | with no effect |
| G659E | with no effect |
| G659A | with no effect |
| G659K | with no effect |

| Variant | effect of a mutation on the interaction |
| --- | --- |
| V706E | with no effect |
| V706A | with no effect |
| V706K | with no effect |
| I676A | with no effect |
| I676E | with no effect |
| I676K | with no effect |
| L692A | with no effect |
| L692K | with no effect |
| L692E | with no effect |
| Q672K | with no effect |
| Q672E | with no effect |
| Q672A | with no effect |
| Q677K | with no effect |
| Q677Y | disrupting interaction strength |
| Q677A | with no effect |
| Q677E | with no effect |
| Q705E | with no effect |
| Q705M | disrupting interaction strength |
| Q705K | with no effect |
| Q705A | with no effect |
| A675K | with no effect |
| A675H | disrupting interaction strength |
| A675E | with no effect |
| A690V | disrupting interaction strength |
| A690E | disrupting interaction strength |
| A690F | disrupting interaction strength |

| Variant | effect of a mutation on the interaction |
| --- | --- |
| A690K | with no effect |
| A670E | with no effect |
| A670K | with no effect |
| A670T | disrupting interaction strength |
| L665A | with no effect |
| L665E | with no effect |
| L665K | with no effect |
| L665R | disrupting interaction strength |
| D696K | with no effect |
| D696E | with no effect |
| D696A | with no effect |
| P689A | with no effect |
| P689K | with no effect |
| P689S | disrupting interaction strength |
| P689E | with no effect |
| G701A | with no effect |
| G701K | with no effect |
| G701E | disrupting interaction strength |
| T702A | with no effect |
| T702E | with no effect |
| T702C | disrupting interaction strength |
| T702K | with no effect |
| I707A | with no effect |
| I707K | with no effect |
| I707E | with no effect |
| L699A | with no effect |

| Variant | effect of a mutation on the interaction |
| --- | --- |
| L699E | with no effect |
| L699K | disrupting interaction strength |
| L655E | with no effect |
| L655K | with no effect |
| L655A | with no effect |
| D700E | with no effect |
| D700A | with no effect |
| D700K | with no effect |
| I657A | with no effect |
| I657E | with no effect |
| I657K | with no effect |
| R674E | with no effect |
| R674K | with no effect |
| R674P | disrupting interaction strength |
| R674A | with no effect |
| A682E | with no effect |
| A682K | with no effect |
| L698A | with no effect |
| L698K | with no effect |
| L698E | with no effect |
| K685A | with no effect |
| K685E | with no effect |
| P691S | disrupting interaction strength |
| P691E | with no effect |
| P691A | with no effect |
| P691K | with no effect |

| Variant | effect of a mutation on the interaction |
| --- | --- |
| P691L | disrupting interaction strength |
| K704E | with no effect |
| K704A | with no effect |
| S667E | with no effect |
| S667A | with no effect |
| S667K | with no effect |
| T697A | with no effect |
| T697K | with no effect |
| T697C | disrupting interaction strength |
| T697E | with no effect |
| F653A | with no effect |
| F653E | with no effect |
| F653K | with no effect |
| K661E | with no effect |
| K661A | with no effect |
| E663K | with no effect |
| E663A | with no effect |
| L666K | with no effect |
| L666E | with no effect |
| L666A | with no effect |
| L681A | with no effect |
| L681E | with no effect |
| L681K | with no effect |
| N658E | with no effect |
| N658K | with no effect |
| N658A | with no effect |

| Variant | effect of a mutation on the interaction |
| --- | --- |
| V671K | with no effect |
| V671E | with no effect |
| V671A | with no effect |
| L695A | with no effect |
| L695K | with no effect |
| L695E | with no effect |
| L695M | disrupting interaction strength |
| R669K | with no effect |
| R669A | with no effect |
| R669E | with no effect |
| E660K | with no effect |
| E660A | with no effect |
| R656E | with no effect |
| R656K | with no effect |
| R656A | with no effect |
| L662A | with no effect |
| L662K | with no effect |
| L662E | with no effect |
| E664A | with no effect |
| E664K | with no effect |
